Results taken from paper PMC8244865, “Recruitment of phospholipase Cγ1 to the non-structural membrane protein pK15 of Kaposi Sarcoma-associated herpesvirus promotes its Src-dependent phosphorylation” (PLoS Pathogens, 2021).

How the values were obtained:
Assay type in all cases: binding
[1] = tested on: PLCγ1 SA domain; assay: AlphaLISA, PLCγ1 SA; conditions: phosphorylated by 2xStrep-Src, 300 nM each protein, 1 h room temperature, 615 nm, at least two independent experiments
Description: (§1) Fig 4 The PLCγ1 cSH2 domain is required for the binding of PLCγ1 to phosphorylated pK15 in vitro and may serve as a dominant-negative inhibitor. GST-fused pK15 cytoplasmic tail WT (A), or its truncated mutant N2 [51] (B), were phosphorylated in vitro by 2xStrep-Src and an AlphaLISA was performed with the indicated His-tagged fragments of PLCγ1. Mean and standard deviation from at least two independent experiments with two technical replicates each are depicted. GST fusion proteins of the N1 (C) or N2 (D) truncation mutants of the pK15 cytoplasmic tail were phosphorylated in vitro by 2xStrep-Src and their interaction with recombinant purified PLCγ1 tSH2 (tandem SH2) or SA (γ-specific array) domains was measured by AlphaLISA in the presence of increasing concentrations (300 nM, 600 nM, 900 nM, 1200 nM) of the purified PLCγ1 cSH2. […] After 48h lysates were collected and analysed by Western blot using an antibody to PLCγ1 pY^783 to assess the level of PLCγ1 phosphorylation. (F) The intensities of the pPLCγ1 bands shown in panel E were quantified by densitometry, normalized to the values obtained with the empty vector (EV) in the presence of pK15, and plotted as relative values. […]
(§2) His-tagged PLCγ1 (SA, tSH2 or the isolated SH2 domains) was incubated at room temperature with GST-tagged K15P or its mutants for 1 hour. […] Emission at 615 nm was detected on BioTek Synergy 2 plate reader.

[2] = tested on: PLCγ1 SA R586L or R694L; assay: GST-pulldown, PLCγ1 SA R586L or R694L; conditions: phosphorylated, HEK 293T, versus WT
Description: Fig 3 Contribution of individual PLCγ1 SH2 domains to the interaction with phosphorylated pK15. The pK15 CT fused to GST, its Y^481F mutant, or GST alone were bound to glutathione beads, phosphorylated in vitro (+) or left unphosphorylated (-), and a GST pulldown was performed 32h after transfection into HEK-293T cells of expression vectors for S-tagged full-length PLCγ1 (FL) (A) or PLCγ1 SA (B) containing the indicated mutations. (C) pK15 CT WT, its Y^481F mutant or GST were bound to glutathione beads, phosphorylated in vitro (+) or left unphosphorylated (-), and used for a GST pulldown assay 32h after transfecting HEK 293T cells with expression vectors for S-tagged individual PLCγ1 nSH2 or cSH2 domains. […]
HEK293T cells were washed once with cold PBS 30 hours after transfection, lysed in IP buffer (50 mM Tris pH7.6, 60 mM NaCl, 6.25 mM EDTA, 1% (v/v) glycerol, 0.04% (v/v) NP-40) on ice for 30 minutes, sonicated shortly and cleared by centrifugation for 10 minutes at 20.000g, 4°C. […] Beads were then washed 5 times in 500 μl IP buffer (or for purified proteins IP buffer with 200 mM NaCl), suspended in 10 μl of 5x Laemmli sample buffer (60 mM Tris pH6.8, 24% (v/v) glycerol, 2% (v/v) SDS, 5% (v/v) β-mercaptoethanol, 0.01% Bromphenol Blue) and analysed by western blot.

[3] = tested on: PLCγ1 cSH2 R^694L; assay: AlphaLISA, isolated PLCγ1 cSH2 R694L; conditions: phosphorylated; 300 nM each protein
Description: as §1, §2

[4] = tested on: PLCγ1 tSH2 domain; assay: AlphaLISA, PLCγ1 tSH2; conditions: phosphorylated by 2xStrep-Src, 300 nM each protein, 1 h room temperature, 615 nm, at least two independent experiments
Description: as §1, §2

[5] = tested on: PLCγ1 R^586L and R^694L double mutant (DM) (SA and tSH2); assay: AlphaLISA, SA and tSH2 double mutant; conditions: phosphorylated; 300 nM each protein
Description: as §1, §2

B1: pK15 CT^WT: pK15 cytoplasmic tail fused to GST at its N-terminal end, phosphorylated in vitro by Src (protein)
chain: SQLLNEVELQEVNRDPPNVFGYASILVSGAEESREPSPQPDQSGMSILRVDGGSAFRIDTAQAATQPTDDLYEEVLFPRN
modifications: tyrosine-phosphorylated in vitro by Src; sites not stated for this construct; left off: GST, N-terminal, kept
- interaction (AlphaLISA) [1]: does interact with the PLCγ1 SA
- interaction (AlphaLISA) ([1]; listed as pK15 CT^N2): only bound weakly to PLCγ1 SA
- binding of mutants (GST-pulldown) [2]: strongly reduced binding
- interaction (AlphaLISA) [3]: abolished
- interaction (AlphaLISA) [4]: bound more strongly to the PLCγ1 tSH2 domain than to the PLCγ1 SA domain
- interaction (AlphaLISA) ([4]; listed as pK15 CT^N2): binds strongly to the PLCγ1 tSH2 domain
- interaction (AlphaLISA) [5]: failed to interact
